The record followed here is publication PMC9118981.

Substrate in data set [1]: O=c1[nH]c(=O)[nH]c(=O)[nH]1
Nature of the data set: purified protein. Conditions: 50.0 °C. It is filed as biochemical, Pseudolabrys sp. Root1462.

Substrate in data set [2]: O=c1[nH]c(=O)[nH]c(=O)[nH]1
Nature of the data set: purified protein. It is filed as biochemical, Bradyrhizobium diazoefficiens. As to conditions: 50.0 °C.

B1: CAH-PR (Pseudolabrys sp. Root1462) (protein)
chain: MPIAKVHRISASSPNDVSGLEAAIASGRIDPKGVIAVLGKTEGNGLVNDFSRGLATTALTLLFERHLPQAEAAQICLVMSGGTEGGMAPHWIVFERGKGEGGRSPALAIGRAHTLQLPYEQLGRLGEVDQVAAGVRAAMEDAGIADPADVHFVQIKCPLLTAQRIAEAEARGAAVATRDTLKSMSLSRAASALGAAVALGEIDRAAITEAQIGSDWSLWSGRASTSAGIELVNHEIVVLGMSKDWSGPLAIDHAVMRDGIDIEPVRAALQRLGLGAAGQLDPAQRNKMVALLAKAEASHDGRLRGHRHTMLDDSDIASTRHARGFVCGALAGLVGHAEIYVSGGAEHQGPDGGGPVAVIVDRG
notes: codon-optimised gene expressed in Bacillus subtilis, purified; no tag mentioned
Turning to B1, in “purified protein [1]”, the Km was 115 ± 36 µM and the kcat is 10.1 ± 2.7 s⁻¹.

B2: CAH-BD (Bradyrhizobium diazoefficiens USDA 110) (protein)
chain: MRTTSVGVFKIVTKGPGDVSGLMAMIGSGAIDPKSILAVLGKTEGNGGVNDFTREYAVAALCTALAPQLGLSPEEVEQRIAFVMSGGTEGVLSPHITVFTRREVERRPAGLSGKRLSIGMAHTRDFLPEELGRAAQIAETAAAVKAAMADAGIADPADVHFVQIKCPLLTSDRVEAASARGNKTATTSAYGSMAYSRGASALGVAVALGETGSDISDGDVLRRYDLFSKVASTSAGIELMHNVVIVLGNSAASASEFEIGHAVMNDAIDAAAVTSALKCVGLGVAPQAEAGRELVNIFAKAEASPDGSVRGFRHTMLEDTDISSTRHARAAVGGLIAGLAGTGAVYVSGGAEHQGPAGGGPVAVIARLSD
notes: as for B1
B2: in “purified protein [2]”, the Michaelis constant (Km) is 103 ± 29 µM and the turnover number (kcat) is 10.6 ± 1.9 s⁻¹.
